Tests used:
[1] = biological target: BG505 D474A
[2] = biological target: BG505 Env on BG505 pseudovirus (HIV isolate BG505)
[3] = biological target: BG505 G471A
[4] = biological target: BG505 K121A
[5] = biological target: BG505 K282A
[6] = biological target: BG505 L179A
[7] = biological target: BG505 L369A
[8] = biological target: BG505 N262A
[9] = biological target: BG505 N276A
[10] = biological target: BG505 N279A
[11] = biological target: BG505 N332T
[12] = biological target: BG505 N363A
[13] = biological target: BG505 R476A
[14] = biological target: BG505 S364A
[15] = biological target: BG505 S365A
[16] = biological target: BG505 T372A
[17] = biological target: BG505 T373A
[18] = biological target: JR-CSF D279A
[19] = biological target: JR-CSF D474A
[20] = biological target: JR-CSF Env on JR-CSF pseudovirus
[21] = biological target: JR-CSF G471A
[22] = biological target: JR-CSF K207A
[23] = biological target: JR-CSF K282A
[24] = biological target: JR-CSF M373A
[25] = biological target: JR-CSF N276A
[26] = biological target: JR-CSF N283A
[27] = biological target: JR-CSF N362A
[28] = biological target: JR-CSF P369A
[29] = biological target: JR-CSF R476A
[30] = biological target: JR-CSF S199A
[31] = biological target: JR-CSF S365A
[32] = biological target: JR-CSF T198A
[33] = biological target: JR-CSF V372A
[34] = biological target: gp120 (isolate 92BR020) (HIV-1 isolate 92BR020); test: ELISA on gp120 (isolate 92BR020), buffer pH 6
[35] = biological target: gp120 (isolate 92BR020) (HIV-1 isolate 92BR020); test: ELISA on gp120 (isolate 92BR020), buffer pH 5.5
[36] = biological target: BG505 gp120 captured from lysed virions (HIV isolate BG505); test: ELISA on BG505 gp120 in PBS pH 7.4
[37] = biological target: BG505 E370A; test: ELISA, gp120 captured from lysed virions
[38] = biological target: BG505 G366A; test: ELISA, gp120 captured from lysed virions
[39] = biological target: BG505 G367A; test: ELISA, gp120 captured from lysed virions
[40] = biological target: BG505 G471A; test: ELISA, gp120 captured from lysed virions
[41] = biological target: BG505 K121A; test: ELISA, gp120 captured from lysed virions
[42] = biological target: BG505 L179A; test: ELISA, gp120 captured from lysed virions
[43] = biological target: BG505 L369A; test: ELISA, gp120 captured from lysed virions
[44] = biological target: BG505 M475A; test: ELISA, gp120 captured from lysed virions
[45] = biological target: BG505 N197A; test: ELISA, gp120 captured from lysed virions
[46] = biological target: BG505 N283A; test: ELISA, gp120 captured from lysed virions
[47] = biological target: BG505 N332T; test: ELISA, gp120 captured from lysed virions
[48] = biological target: BG505 N363A; test: ELISA, gp120 captured from lysed virions
[49] = biological target: BG505 R476A; test: ELISA, gp120 captured from lysed virions
[50] = biological target: BG505 S364A; test: ELISA, gp120 captured from lysed virions
[51] = biological target: BG505 S365A; test: ELISA, gp120 captured from lysed virions
[52] = biological target: BG505 T372A; test: ELISA, gp120 captured from lysed virions
[53] = biological target: BG505 T373A; test: ELISA, gp120 captured from lysed virions
[54] = biological target: BG505 V371A; test: ELISA, gp120 captured from lysed virions
[55] = biological target: BG505 gp120 captured from lysed virions (HIV isolate BG505); test: ELISA, gp120 captured from lysed virions
[56] = biological target: JR-CSF E370A; test: ELISA, gp120 captured from lysed virions
[57] = biological target: JR-CSF G366A; test: ELISA, gp120 captured from lysed virions
[58] = biological target: JR-CSF G471A; test: ELISA, gp120 captured from lysed virions
[59] = biological target: JR-CSF G472A; test: ELISA, gp120 captured from lysed virions
[60] = biological target: JR-CSF G473A; test: ELISA, gp120 captured from lysed virions
[61] = biological target: JR-CSF K207A; test: ELISA, gp120 captured from lysed virions
[62] = biological target: JR-CSF N262A; test: ELISA, gp120 captured from lysed virions
[63] = biological target: JR-CSF N276A; test: ELISA, gp120 captured from lysed virions
[64] = biological target: JR-CSF N279A; test: ELISA, gp120 captured from lysed virions
[65] = biological target: JR-CSF N283A; test: ELISA, gp120 captured from lysed virions
[66] = biological target: JR-CSF N362A; test: ELISA, gp120 captured from lysed virions
[67] = biological target: JR-CSF R476A; test: ELISA, gp120 captured from lysed virions
[68] = biological target: JR-CSF S199A; test: ELISA, gp120 captured from lysed virions
[69] = biological target: JR-CSF S365A; test: ELISA, gp120 captured from lysed virions
[70] = biological target: JR-CSF T198A; test: ELISA, gp120 captured from lysed virions
[71] = biological target: JR-CSF T373A; test: ELISA, gp120 captured from lysed virions
[72] = biological target: JR-CSF V371A; test: ELISA, gp120 captured from lysed virions

Substance: 12A12 (antibody)
- IC50, pseudovirus neutralization [1]: 0.02 µg/mL
- IC50, pseudovirus neutralization [2]: 0.02 µg/mL
- IC50, pseudovirus neutralization [3]: 0.029 µg/mL
- IC50, pseudovirus neutralization [4]: 0.053 µg/mL
- IC50, pseudovirus neutralization [5]: 0.04 µg/mL
- IC50, pseudovirus neutralization [6]: 0.056 µg/mL
- IC50, pseudovirus neutralization [7]: 0.03 µg/mL
- IC50, pseudovirus neutralization [8]: 0.017 µg/mL
- IC50, pseudovirus neutralization [9]: 0.003 µg/mL
- IC50, pseudovirus neutralization [10]: 0.058 µg/mL
- IC50, pseudovirus neutralization [11]: 0.031 µg/mL
- IC50, pseudovirus neutralization [12]: 0.038 µg/mL
- IC50, pseudovirus neutralization [13]: 0.026 µg/mL
- IC50, pseudovirus neutralization [14]: 0.032 µg/mL
- IC50, pseudovirus neutralization [15]: 0.057 µg/mL
- IC50, pseudovirus neutralization [16]: 0.037 µg/mL
- IC50, pseudovirus neutralization [17]: 0.039 µg/mL
- IC50, pseudovirus neutralization [18]: > 50 µg/mL
- IC50, pseudovirus neutralization [19]: 0.075 µg/mL
- IC50, pseudovirus neutralization [20]: 0.219 µg/mL
- IC50, pseudovirus neutralization [21]: 0.114 µg/mL
- IC50, pseudovirus neutralization [22]: 0.383 µg/mL
- IC50, pseudovirus neutralization [23]: 2.33 µg/mL
- IC50, pseudovirus neutralization [24]: 0.134 µg/mL
- IC50, pseudovirus neutralization [25]: 2.72 µg/mL
- IC50, pseudovirus neutralization [26]: 0.219 µg/mL
- IC50, pseudovirus neutralization [27]: 0.11 µg/mL
- IC50, pseudovirus neutralization [28]: 0.205 µg/mL
- IC50, pseudovirus neutralization [29]: 0.082 µg/mL
- IC50, pseudovirus neutralization [30]: 0.032 µg/mL
- IC50, pseudovirus neutralization [31]: 0.18 µg/mL
- IC50, pseudovirus neutralization [32]: 0.622 µg/mL
- IC50, pseudovirus neutralization [33]: 0.214 µg/mL
- EC50 (read off the curve) [34]: 0.4 µg/mL
- EC50 (read off the curve) [35]: 0.4 µg/mL

Substance: NC-Cow1 (antibody)
- IC50, pseudovirus neutralization [3]: 0.013 µg/mL
- IC50, pseudovirus neutralization [4]: 0.029 µg/mL
- IC50, pseudovirus neutralization [6]: 0.018 µg/mL
- IC50, pseudovirus neutralization [7]: 0.015 µg/mL
- IC50, pseudovirus neutralization [11]: 0.018 µg/mL
- IC50, pseudovirus neutralization [12]: 0.013 µg/mL
- IC50, pseudovirus neutralization [13]: 0.012 µg/mL
- IC50, pseudovirus neutralization [14]: 0.014 µg/mL
- IC50, pseudovirus neutralization [15]: 0.015 µg/mL
- IC50, pseudovirus neutralization [16]: 0.028 µg/mL
- IC50, pseudovirus neutralization [17]: 0.016 µg/mL
- IC50, pseudovirus neutralization [21]: 50 µg/mL
- IC50, pseudovirus neutralization [22]: 1.8 µg/mL
- IC50, pseudovirus neutralization [25]: 1.76 µg/mL
- IC50, pseudovirus neutralization [26]: 6.94 µg/mL
- IC50, pseudovirus neutralization [27]: 0.496 µg/mL
- IC50, pseudovirus neutralization [29]: > 50 µg/mL
- IC50, pseudovirus neutralization [30]: 0.404 µg/mL
- IC50, pseudovirus neutralization [31]: 0.129 µg/mL
- IC50, pseudovirus neutralization [32]: 2.98 µg/mL
- EC50 (read off the curve) [36]: 0.1 µg/mL
- EC50 [37]: 0.11 µg/mL
- EC50 [38]: 0.13 µg/mL
- EC50 [39]: 1.34 µg/mL
- EC50 [40]: 0.05 µg/mL
- EC50 [41]: 0.04 µg/mL
- EC50 [42]: 0.05 µg/mL
- EC50 [43]: 0.24 µg/mL
- EC50 [44]: 0.08 µg/mL
- EC50 [45]: 0.04 µg/mL
- EC50 [46]: 0.1 µg/mL
- EC50 [47]: 0.05 µg/mL
- EC50 [48]: 0.09 µg/mL
- EC50 [49]: 0.07 µg/mL
- EC50 [50]: 0.14 µg/mL
- EC50 [51]: 0.07 µg/mL
- EC50 [52]: 0.07 µg/mL
- EC50 [53]: 0.12 µg/mL
- EC50 [54]: 0.24 µg/mL
- EC50 [55]: 0.04 µg/mL
- EC50 [56]: 1.16 µg/mL
- EC50 [57]: 0.027 µg/mL
- EC50 [58]: 0.148 µg/mL
- EC50 [59]: 11.2 µg/mL
- EC50 [60]: 6.83 µg/mL
- EC50 [61]: 0.052 µg/mL
- EC50 [62]: 5.64 µg/mL
- EC50 [63]: 0.029 µg/mL
- EC50 [64]: 0.036 µg/mL
- EC50 [65]: 0.133 µg/mL
- EC50 [66]: 0.038 µg/mL
- EC50 [67]: 0.281 µg/mL
- EC50 [68]: 0.058 µg/mL
- EC50 [69]: 0.028 µg/mL
- EC50 [70]: 0.045 µg/mL
- EC50 [71]: 0.067 µg/mL
- EC50 [72]: 1.36 µg/mL

— US20200165324A1
